{
  "source": "patent US20100239571A1",
  "about": "(Seagen, published 2010)",
  "key": {"[1]": {"molecular_target": "T1, CD30 surface antigen expressed on Karpas-299 (human, UniProt P28908 19-595)", "T1 construct": "whole, on cells; also called human CD30", "T1 sequence (looked up)": "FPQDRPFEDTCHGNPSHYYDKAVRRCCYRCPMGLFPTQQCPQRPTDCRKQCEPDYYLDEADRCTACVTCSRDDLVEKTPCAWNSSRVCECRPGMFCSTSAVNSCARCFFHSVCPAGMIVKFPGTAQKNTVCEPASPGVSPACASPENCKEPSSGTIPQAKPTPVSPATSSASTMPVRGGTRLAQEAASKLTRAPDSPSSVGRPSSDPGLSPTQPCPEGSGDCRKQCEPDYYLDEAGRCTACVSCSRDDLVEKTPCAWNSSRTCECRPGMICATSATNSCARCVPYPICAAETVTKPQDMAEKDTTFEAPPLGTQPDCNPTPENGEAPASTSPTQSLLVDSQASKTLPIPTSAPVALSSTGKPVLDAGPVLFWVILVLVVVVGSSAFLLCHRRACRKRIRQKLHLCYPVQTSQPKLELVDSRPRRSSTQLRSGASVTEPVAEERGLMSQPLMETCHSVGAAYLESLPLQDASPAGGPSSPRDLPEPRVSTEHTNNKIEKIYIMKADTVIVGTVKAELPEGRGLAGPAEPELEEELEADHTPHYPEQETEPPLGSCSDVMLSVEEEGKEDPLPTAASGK", "assay": "competition binding on Karpas 299 cells against europium-labeled cAC10 (control competitor)", "method": "(§1) The variants were tested for binding to CD30 surface antigen expressed on Karpas-299, an anaplastic large cell lymphoma cell line, using a competition binding assay in which cAC10, expressed in CHO cells, was europium labeled (see, e.g., Law et al., Cancer Research 65:8331-38 (2005)). The results, shown below in the second column of Table 6, indicate that all of the variants were able to compete with cAC10 for binding to CD30. Thus, the variants retained antigen binding activity."}, "[2]": {"molecular_target": "T1, CD30 surface antigen expressed on …", "assay": "competition binding on Karpas 299 cells against europium-labeled cAC10", "method": "as §1"}},
  "data": [
    {"binder": "cAC10 (CHO) (antibody, V domains shown, Human-murine chimeric AC10 expressed in CHO cells; also called chimeric AC10; chimeric monoclonal antibody AC10) VH: QVQLVQSGAEVVKPGASVKVSCKASGYTFTDYYITWVRQAPGQGLEWMGWIYPGSGNTKYNEKFKGKATLTVDTSSSTAFMQLSSLTSEDTAVYFCANYGNYWFAYWGQGTQVTVSA VL: DIVLTQSPASLAVSLGQRATISCKASQSVDFDGDSYMNWYQQKPGQPPKVLIYAASNLESGIPARFSGSGSGTDFTLNIHPVEEEDAATYYCQQSNEDPWTFGGGTKLEIK", "values": [
      {"measurement": "EC50", "setting": "[1]", "result": 2.9, "unit": "nM"}
    ]},
    {"binder": "hAC10 HALA (antibody, human IgG1, kappa, V domains shown, The name HALA is read as heavy variant A plus light variant A; also called humanized AC10 variant HALA; hVH A + hVL A) VH: QVQLVQSGAEVKKPGASVKVSCKASGYTFTDYYITWVRQAPGQGLEWMGWIYPGSGNTKYNEKFKGRVTMTVDTSISTAYMELSRLRSDDTAVYFCANYGNYWFAYWGQGTLVTVSS VL: DIVMTQSPDSLAVSLGERATINCKASQSVDFDGDSYMNWYQQKPGQPPKLLIYAASNLESGVPDRFSGSGSGTDFTLTISSLQAEDVAVYYCQQSNEDPWTFGQGTKVEIKR", "values": [
      {"measurement": "EC50", "setting": "[2]", "result": 6.61, "unit": "nM"}
    ]},
    {"binder": "hAC10 HDLD (antibody, human IgG1, kappa, V domains shown, Human IgG1 / kappa; also called humanized AC10 variant HDLD; hVH D + hVL D) VH: QVQLVQSGAEVKKPGASVKVSCKASGYTFTDYYITWVRQAPGQGLEWMGWIYPGSGNTKYNEKFKGRVTMTRDTSISTAYMELSRLRSDDTAVYYCANYGNYWFAYWGQGTLVTVSS VL: DIVMTQSPDSLAVSLGERATINCKSSQSVDFDGDSYLNWYQQKPGQPPKLLIYAASNLESGVPDRFSGSGSGTDFTLTISSLQAEDVAVYYCQQSNEDPWTFGQGTKVEIKR", "values": [
      {"measurement": "EC50", "setting": "[2]", "result": 2.25, "unit": "nM"}
    ]},
    {"binder": "hAC10 HBLA (antibody, human IgG1, kappa, V domains shown, Human IgG1 / kappa; also called humanized AC10 variant HBLA; hVH B + hVL A) VH: QVQLVQSGAEVKKPGASVKVSCKASGYTFTDYYITWVRQAPGQGLEWMGWIYPGSGNTKYNEKFKGRVTMTRDTSISTAYMELSRLRSDDTAVYFCANYGNYWFAYWGQGTLVTVSS VL: DIVMTQSPDSLAVSLGERATINCKASQSVDFDGDSYMNWYQQKPGQPPKLLIYAASNLESGVPDRFSGSGSGTDFTLTISSLQAEDVAVYYCQQSNEDPWTFGQGTKVEIKR", "values": [
      {"measurement": "EC50", "setting": "[2]", "result": 3.31, "unit": "nM"}
    ]},
    {"binder": "hAC10 HALC (antibody, human IgG1, kappa, V domains shown, Human IgG1 / kappa; also called humanized AC10 variant HALC; hVH A + hVL C) VH: QVQLVQSGAEVKKPGASVKVSCKASGYTFTDYYITWVRQAPGQGLEWMGWIYPGSGNTKYNEKFKGRVTMTVDTSISTAYMELSRLRSDDTAVYFCANYGNYWFAYWGQGTLVTVSS VL: DIVMTQSPDSLAVSLGERATINCKASQSVDFDGDSYLNWYQQKPGQPPKLLIYAASNLESGVPDRFSGSGSGTDFTLTISSLQAEDVAVYYCQQSNEDPWTFGQGTKVEIKR", "values": [
      {"measurement": "EC50", "setting": "[2]", "result": 3.53, "unit": "nM"}
    ]},
    {"binder": "hAC10 HALD (antibody, human IgG1, kappa, V domains shown, Human IgG1 / kappa; also called humanized AC10 variant HALD; hVH A + hVL D) VH: QVQLVQSGAEVKKPGASVKVSCKASGYTFTDYYITWVRQAPGQGLEWMGWIYPGSGNTKYNEKFKGRVTMTVDTSISTAYMELSRLRSDDTAVYFCANYGNYWFAYWGQGTLVTVSS VL: DIVMTQSPDSLAVSLGERATINCKSSQSVDFDGDSYLNWYQQKPGQPPKLLIYAASNLESGVPDRFSGSGSGTDFTLTISSLQAEDVAVYYCQQSNEDPWTFGQGTKVEIKR", "values": [
      {"measurement": "EC50", "setting": "[2]", "result": 6, "unit": "nM"}
    ]},
    {"binder": "hAC10 HALB (antibody, human IgG1, kappa, V domains shown, Human IgG1 / kappa; also called humanized AC10 variant HALB; hVH A + hVL B) VH: QVQLVQSGAEVKKPGASVKVSCKASGYTFTDYYITWVRQAPGQGLEWMGWIYPGSGNTKYNEKFKGRVTMTVDTSISTAYMELSRLRSDDTAVYFCANYGNYWFAYWGQGTLVTVSS VL: DIVMTQSPDSLAVSLGERATINCKSSQSVDFDGDSYMNWYQQKPGQPPKLLIYAASNLESGVPDRFSGSGSGTDFTLTISSLQAEDVAVYYCQQSNEDPWTFGQGTKVEIKR", "values": [
      {"measurement": "EC50", "setting": "[2]", "result": 5.9, "unit": "nM"}
    ]},
    {"binder": "hAC10 HCLA (antibody, human IgG1, kappa, V domains shown, Human IgG1 / kappa; also called humanized AC10 variant HCLA; hVH C + hVL A) VH: QVQLVQSGAEVKKPGASVKVSCKASGYTFTDYYITWVRQAPGQGLEWMGWIYPGSGNTKYNEKFKGRVTMTVDTSISTAYMELSRLRSDDTAVYYCANYGNYWFAYWGQGTLVTVSS VL: DIVMTQSPDSLAVSLGERATINCKASQSVDFDGDSYMNWYQQKPGQPPKLLIYAASNLESGVPDRFSGSGSGTDFTLTISSLQAEDVAVYYCQQSNEDPWTFGQGTKVEIKR", "values": [
      {"measurement": "EC50", "setting": "[2]", "result": 3.61, "unit": "nM"}
    ]},
    {"binder": "hAC10 HDLA (antibody, human IgG1, kappa, V domains shown, Human IgG1 / kappa; also called humanized AC10 variant HDLA; antibody HDLA) VH: QVQLVQSGAEVKKPGASVKVSCKASGYTFTDYYITWVRQAPGQGLEWMGWIYPGSGNTKYNEKFKGRVTMTRDTSISTAYMELSRLRSDDTAVYYCANYGNYWFAYWGQGTLVTVSS VL: DIVMTQSPDSLAVSLGERATINCKASQSVDFDGDSYMNWYQQKPGQPPKLLIYAASNLESGVPDRFSGSGSGTDFTLTISSLQAEDVAVYYCQQSNEDPWTFGQGTKVEIKR", "values": [
      {"measurement": "EC50", "setting": "[2]", "result": 3.1, "unit": "nM"}
    ]}
  ]
}
